Results from patent publication US10213494B2, “Treatment of synucleinopathies” (The Brigham and Women's Hospital, Inc., priority 2007, dated 2019).
Square brackets hold non-standard residues; d marks the D form. Peptide text beside a SMILES is read from it. * marks the point of attachment. Sta = CC(C)C[C@H](N)[C@@H](O)CC(=O)O; Isovaleryl = CC(C)CC(=O)*

Tested on: α-synuclein protein (wild-type, human) in MES23.5 cells
Test: Sandwich ELISA of intracellular α-synuclein in MES23.5 cells co-transfected with wild-type human SNCA cDNA and lysosomal enzyme cDNA
Assay type: cell-based
Conditions: GBA variant plasmid 5 μg per 10 cm dish + 0.5 μg SNCA cDNA, 24 hours after transfection, no prosaposin; mean+/−sem
Procedure: Sera from six rabbits were raised and affinity-purified at Open Biosystems, Inc. (openbiosystems.com) against recombinant, full-length human αS. Recombinant αS had been HPLC- and MS-characterized and subjected to amino acid composition and protein concentration analyses. For ELISA, 384-well MaxiSorp plates (Nunc, Inc) were coated with 50 μl/well capturing polyclonal Ab (hSA-2) diluted in coating buffer (NaHCO3 with 0.2% NaN3, pH 9.6). Following washes with PBS/0.05% Tween-20 (PBS-T), plates were blocked for 2 hours at 37° C. in blocking buffer (1.125% fish skin gelatin; PBS-T). After 4 washes, samples were loaded and incubated at 4° C. for 12 hours. Biotinylated Syn-1 mAb (as the assaying Ab) was generated using 200 μg Sulfo-NHS-LC Biotin (Pierce), diluted in blocking buffer and added to the plate for 2 hours at 37° C. Following 4 washes, ExtrAvidin phosphatase (Sigma) diluted in blocking buffer was applied for 1 hr at 37° C. Color development was carried out by using Fast-p-Nitrophenyl Phosphate (Sigma) and monitored kinetically at OD 405 nm every 5 minutes for up to 60 minutes.
To optimize a ‘DNA: LIPOFECTAMINE® 2000’ ratio with low cell toxicity, MES23.5 cells were transfected with either 0.25, 0.5 or 1 μg αS-encoding, wild-type, human SNCA cDNA plus empty vector cDNA up to a total of 5.5 μg DNA per 10 cm dish. 24 hours after transfection, cell lysates were harvested as described above. For serial dilutions of cell lysates, blocking buffer containing 0.5% lysate from vector-transfected wells was used as diluent, which was also used to create the blank and the corresponding standard curve of recombinant human αS. Saturation kinetics were examined for identification of time point(s) where standards and sample dilutions were in the log phase.
MES cells were transfected with 0.5 μg per 10 cm dish of αS-encoding SNCA cDNA-carrying plasmid, plus 5 μg per 10 cm dish of wild-type or mutant, human GBA-encoding plasmid. The GBA variants used were wild type, N370S, D409H, L444P, E235A, and E340A. These 5 GBA mutants were created by site-directed mutagenesis, using the Quickchange® kit (Stratagene), and sequence-verified. The N370S, D409H and L444P are known to occur (in the homozygous or compound heterozygous state) in Gaucher disease in the heterozygous state in Parkinson Disease patients and/or patients with dementia with Lewy bodies. The E235A and E340A mutant GBA proteins are not known to occur in people.
24 hours after transfection, MES cells were lysed as described above and all lysates were analyzed by ELISA. […] This is in contrast to the result observed in Example 5 above. The observed discrepancy can reflect the differences in total DNA transfected in the two paradigms (FIG. 2B; FIG. 2C versus FIG. 4), thereby leading to changes in the DNA:LIPOFECTAMINE® 2000 ratio, and in the role of co-expressed prosaposin (saposin C). It is therefore conceivable that wild-type GBA can have variable effects on αS levels in these MES23.5 cells, depending on the rate of αS import into lysosomes and the composition as well as activation state of more than one lysosomal enzyme.
MES23.5 cells were transfected with 0.5 μg per 10 cm dish of an αS-encoding, wild-type, human SNCA cDNA-carrying plasmid (referred to as MES-hSNCA WT cells in the Western blot shown in FIG. 6), plus either 1.25, 2.5 or 5 μg per 10 cm dish of a human Cathepsin D-encoding CTSD cDNA plasmid, which was purchased from OriGene Technologies, Inc., and was under the control of a CMV promoter. The Cathepsin D clone was fully sequence-verified after isolation and maxiprep. Each transfection arm was balanced with empty vector DNA up to a total of 5.5 μg DNA per 10 cm dish. 24 hours after transfection, cells were lysed, and the resulting lysates were analyzed by the sandwich ELISA described herein. […]

Row | Molecule | intracellular α-synuclein level, % of vector cDNA control levels
1 | N370S: human GBA mutant N370S, created by site-directed mutagenesis, disease-related (protein, UniProt P04062 40-536, looked up, variant N370S) Lysosomal acid …: ARPCIPKSFGYSSVVCVCNATYCDSFDPPTFPALGTFSRYESTRSGRRMELSMGPIQANHTGTGLLLTLQPEQKFQKVKGFGGAMTDAAALNILALSPPAQNLLLKSYFSEEGIGYNIIRVPMASCDFSIRTYTYADTPDDFQLHNFSLPEEDTKLKIPLIHRALQLAQRPVSLLASPWTSPTWLKTNGAVNGKGSLKGQPGDIYHQTWARYFVKFLDAYAEHKLQFWAVTAENEPSAGLLSGYPFQCLGFTPEHQRDFIARDLGPTLANSTHHNVRLLMLDDQRLLLPHWAKVVLTDPEAAKYVHGIAVHWYLDFLAPAKATLGETHRLFPNTMLFASEACVGSKFWEQSVRLGSWDRGMQYSHSIITSLLYHVVGWTDWNLALNPEGGPNWVRNFVDSPIIVDITKDTFYKQPMFYHLGHFSKFIPEGSQRVGLVASQKNDLDAVALMHPDGSAVVVVLNRSSKDVPLTIKDPAVGFLETISPGYSIHTYLWRRQ | 121.1+/−4.98%
2 | L444P: human GBA mutant L444P, created by site-directed mutagenesis, disease-related (protein, UniProt P04062 40-536, looked up, variant L444P) Lysosomal acid …: ARPCIPKSFGYSSVVCVCNATYCDSFDPPTFPALGTFSRYESTRSGRRMELSMGPIQANHTGTGLLLTLQPEQKFQKVKGFGGAMTDAAALNILALSPPAQNLLLKSYFSEEGIGYNIIRVPMASCDFSIRTYTYADTPDDFQLHNFSLPEEDTKLKIPLIHRALQLAQRPVSLLASPWTSPTWLKTNGAVNGKGSLKGQPGDIYHQTWARYFVKFLDAYAEHKLQFWAVTAENEPSAGLLSGYPFQCLGFTPEHQRDFIARDLGPTLANSTHHNVRLLMLDDQRLLLPHWAKVVLTDPEAAKYVHGIAVHWYLDFLAPAKATLGETHRLFPNTMLFASEACVGSKFWEQSVRLGSWDRGMQYSHSIITNLLYHVVGWTDWNLALNPEGGPNWVRNFVDSPIIVDITKDTFYKQPMFYHLGHFSKFIPEGSQRVGLVASQKNDPDAVALMHPDGSAVVVVLNRSSKDVPLTIKDPAVGFLETISPGYSIHTYLWRRQ | 172.7+/−23.02%
3 | E235A: human GBA mutant directed at the acid/base catalyst, catalytically inactive (protein, UniProt P04062 40-536, looked up, variant E235A) Lysosomal acid …: ARPCIPKSFGYSSVVCVCNATYCDSFDPPTFPALGTFSRYESTRSGRRMELSMGPIQANHTGTGLLLTLQPEQKFQKVKGFGGAMTDAAALNILALSPPAQNLLLKSYFSEEGIGYNIIRVPMASCDFSIRTYTYADTPDDFQLHNFSLPEEDTKLKIPLIHRALQLAQRPVSLLASPWTSPTWLKTNGAVNGKGSLKGQPGDIYHQTWARYFVKFLDAYAEHKLQFWAVTAENAPSAGLLSGYPFQCLGFTPEHQRDFIARDLGPTLANSTHHNVRLLMLDDQRLLLPHWAKVVLTDPEAAKYVHGIAVHWYLDFLAPAKATLGETHRLFPNTMLFASEACVGSKFWEQSVRLGSWDRGMQYSHSIITNLLYHVVGWTDWNLALNPEGGPNWVRNFVDSPIIVDITKDTFYKQPMFYHLGHFSKFIPEGSQRVGLVASQKNDLDAVALMHPDGSAVVVVLNRSSKDVPLTIKDPAVGFLETISPGYSIHTYLWRRQ | 231.0+/−37.14%
4 | E340A: human GBA mutant directed at the nucleophile, catalytically inactive (protein, UniProt P04062 40-536, looked up, variant E340A) Lysosomal acid …: ARPCIPKSFGYSSVVCVCNATYCDSFDPPTFPALGTFSRYESTRSGRRMELSMGPIQANHTGTGLLLTLQPEQKFQKVKGFGGAMTDAAALNILALSPPAQNLLLKSYFSEEGIGYNIIRVPMASCDFSIRTYTYADTPDDFQLHNFSLPEEDTKLKIPLIHRALQLAQRPVSLLASPWTSPTWLKTNGAVNGKGSLKGQPGDIYHQTWARYFVKFLDAYAEHKLQFWAVTAENEPSAGLLSGYPFQCLGFTPEHQRDFIARDLGPTLANSTHHNVRLLMLDDQRLLLPHWAKVVLTDPEAAKYVHGIAVHWYLDFLAPAKATLGETHRLFPNTMLFASAACVGSKFWEQSVRLGSWDRGMQYSHSIITNLLYHVVGWTDWNLALNPEGGPNWVRNFVDSPIIVDITKDTFYKQPMFYHLGHFSKFIPEGSQRVGLVASQKNDLDAVALMHPDGSAVVVVLNRSSKDVPLTIKDPAVGFLETISPGYSIHTYLWRRQ | 156.4+/−19.65%
5 | D409H: human GBA mutant D409H, created by site-directed mutagenesis, disease-related (protein, UniProt P04062 40-536, looked up, variant D409H) Lysosomal acid …: ARPCIPKSFGYSSVVCVCNATYCDSFDPPTFPALGTFSRYESTRSGRRMELSMGPIQANHTGTGLLLTLQPEQKFQKVKGFGGAMTDAAALNILALSPPAQNLLLKSYFSEEGIGYNIIRVPMASCDFSIRTYTYADTPDDFQLHNFSLPEEDTKLKIPLIHRALQLAQRPVSLLASPWTSPTWLKTNGAVNGKGSLKGQPGDIYHQTWARYFVKFLDAYAEHKLQFWAVTAENEPSAGLLSGYPFQCLGFTPEHQRDFIARDLGPTLANSTHHNVRLLMLDDQRLLLPHWAKVVLTDPEAAKYVHGIAVHWYLDFLAPAKATLGETHRLFPNTMLFASEACVGSKFWEQSVRLGSWDRGMQYSHSIITNLLYHVVGWTDWNLALNPEGGPNWVRNFVDSPIIVDITKHTFYKQPMFYHLGHFSKFIPEGSQRVGLVASQKNDLDAVALMHPDGSAVVVVLNRSSKDVPLTIKDPAVGFLETISPGYSIHTYLWRRQ | 269.4+/−56.6%

Same assay, conditions: pepstatin A included in the cell lysis buffer

Row | Molecule | amount of αS detected in the lysate
6 | CC(C)CC(=O)N[C@H](C(=O)N[C@H](C(=O)N[C@@H](CC(C)C)[C@@H](O)CC(=O)N[C@@H](C)C(=O)N[C@@H](CC(C)C)[C@@H](O)CC(=O)O)C(C)C)C(C)C [pepstatin A, reference compound] (Isovaleryl-VV[Sta]A[Sta]-OH) | did not change the amount of αS detected in the lysate
